Assay results taken from article PMC6028955 (The Journal of Biological Chemistry, 2018).

Biological target: the molecule itself
Test: AUC; sedimentation velocity (4 °C, 49,000 rpm) and sedimentation equilibrium; 25 mM Tris-HCl pH 7.6, 200 mM NaCl, 2 mM TCEP; SE fitted with a single species model

B1: human SSRP1 lacking the C-terminal ID regions and the HMG domain (residues 1–433) (domain or fragment, UniProt Q08945 1-433, looked up)
chain: MAETLEFNDVYQEVKGSMNDGRLRLSRQGIIFKNSKTGKVDNIQAGELTEGIWRRVALGHGLKLLTKNGHVYKYDGFRESEFEKLSDFFKTHYRLELMEKDLCVKGWNWGTVKFGGQLLSFDIGDQPVFEIPLSNVSQCTTGKNEVTLEFHQNDDAEVSLMEVRFYVPPTQEDGVDPVEAFAQNVLSKADVIQATGDAICIFRELQCLTPRGRYDIRIYPTFLHLHGKTFDYKIPYTTVLRLFLLPHKDQRQMFFVISLDPPIKQGQTRYHFLILLFSKDEDISLTLNMNEEEVEKRFEGRLTKNMSGSLYEMVSRVMKALVNRKITVPGNFQGHSGAQCITCSYKASSGLLYPLERGFIYVHKPPVHIRFDEISFVNFARGTTTTRSFDFEIETKQGTQYTFSSIEREEYGKLFDFVNAKKLNIKNRGLKEG
notes: structure-specific recognition protein-1 (SSRP1), human, residues 1–433 (PH1–PH4; lacks ID1, HMG, ID2); Homodimer by sedimentation equilibrium; predicted monomer mass 49.8 kDa; also called hSSRP1ΔCTD; hSSRP1; source: E. coli BL21 (DE3) Gold, purified (Ni-NTA, TEV treatment, anion-exchange, size-exclusion chromatography); not shown: His6, N-terminal, cleaved
- stoichiometry N: 2
